From patent US10308712B2, “Antibodies that bind human cannabinoid 1 (CB1) receptor” (priority 2014, dated 2019)

How the values were obtained:
[1] = target: T1, human CB1 expressing TRex-CHO cells (Homo sapiens, UniProt P21554); type: cell-based
T1 construct: pcDNA4/TO native full length human CB1 receptor construct was transfected into tetracycline inducible system Trex-CHO and Trex-293 cells; expressed in transfected cells

[2] = tested on: Trex-CHO CB1 receptor cells, WIN55,212 induced ERK phosphorylation; assay: ERK activation assay (western blot); details: IgG 300 nM, WIN55,212 100 nM
[3] = tested on: TRex CHO parental cells; assay: Flow cytometry (FACS) binding, parental cells; details: in words
[4] = target: human CB2 (Homo sapiens, UniProt P34972); assay: Flow cytometry (FACS) selectivity, human CB2 cells; details: in words
human CB2, sequence (P34972 whole entry): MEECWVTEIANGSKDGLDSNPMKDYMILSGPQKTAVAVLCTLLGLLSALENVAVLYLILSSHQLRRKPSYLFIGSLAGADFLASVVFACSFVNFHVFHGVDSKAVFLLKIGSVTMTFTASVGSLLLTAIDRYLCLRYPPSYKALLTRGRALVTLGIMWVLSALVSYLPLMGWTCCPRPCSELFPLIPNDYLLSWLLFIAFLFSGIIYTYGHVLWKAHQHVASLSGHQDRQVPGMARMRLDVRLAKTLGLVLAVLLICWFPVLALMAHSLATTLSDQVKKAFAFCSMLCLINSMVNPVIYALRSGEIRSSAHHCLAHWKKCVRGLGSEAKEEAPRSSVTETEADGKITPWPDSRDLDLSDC

[5] = target: Mouse CB1 (Mus musculus, UniProt P47746); assay: Flow cytometry (FACS) cross-reactivity, mouse CB1 cells; details: in words
Mouse CB1, sequence (P47746 whole entry): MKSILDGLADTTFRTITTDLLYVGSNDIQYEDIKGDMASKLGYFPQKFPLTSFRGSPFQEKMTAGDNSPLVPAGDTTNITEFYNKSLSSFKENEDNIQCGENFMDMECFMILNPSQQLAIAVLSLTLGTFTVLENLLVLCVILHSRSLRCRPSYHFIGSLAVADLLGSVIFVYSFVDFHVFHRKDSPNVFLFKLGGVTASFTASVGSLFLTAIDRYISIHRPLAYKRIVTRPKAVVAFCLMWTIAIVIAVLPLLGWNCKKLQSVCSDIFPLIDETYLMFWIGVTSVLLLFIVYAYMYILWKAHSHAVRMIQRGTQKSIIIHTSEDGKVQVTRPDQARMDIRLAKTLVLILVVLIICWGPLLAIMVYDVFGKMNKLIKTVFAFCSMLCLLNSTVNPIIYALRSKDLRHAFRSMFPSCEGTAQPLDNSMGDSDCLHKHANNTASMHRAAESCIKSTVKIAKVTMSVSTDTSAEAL

[6] = target: T2, CB1 TRex-CHO cells (Homo sapiens, UniProt P21554); type: cell-based; details: antibody 300 nM, 1 hour
T2 construct: pcDNA4/TO native full length human CB1 receptor construct was transfected into tetracycline inducible system Trex-CHO and Trex-293 cells; expressed in transfected cells
T2 sequence (P21554 whole entry): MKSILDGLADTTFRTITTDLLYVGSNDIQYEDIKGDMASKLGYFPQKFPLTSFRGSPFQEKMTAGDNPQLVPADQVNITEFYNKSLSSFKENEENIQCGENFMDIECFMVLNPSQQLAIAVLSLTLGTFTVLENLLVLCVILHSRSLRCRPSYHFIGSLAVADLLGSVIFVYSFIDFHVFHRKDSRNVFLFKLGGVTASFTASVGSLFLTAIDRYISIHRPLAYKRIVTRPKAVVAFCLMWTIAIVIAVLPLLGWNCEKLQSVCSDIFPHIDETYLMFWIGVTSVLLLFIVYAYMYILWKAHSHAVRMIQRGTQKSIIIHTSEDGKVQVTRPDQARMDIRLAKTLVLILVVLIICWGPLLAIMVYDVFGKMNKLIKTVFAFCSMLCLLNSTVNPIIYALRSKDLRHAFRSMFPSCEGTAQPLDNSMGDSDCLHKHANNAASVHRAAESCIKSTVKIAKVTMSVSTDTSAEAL

T1 sequence (P21554 whole entry): as above

Molecule	induction of CB1 receptor internalization by the substance alone [6]	other results
Cc1c(C(=O)NN2CCS(=O)(=O)CC2)nn(-c2ccc(Cl)cc2Cl)c1-c1ccc(C#CCCC#N)cc1 [AM6545, reference compound]		effect on cAMP levels ([1]; 1.5 μM or 5 μM forskolin stimulated TRex-CHO CB1 cells, no exogenous agonist): did not affect cAMP levels
36E12B6C2: hybridoma-derived anti-CB1 antibody; HC variable SEQ ID NO: 18, LC variable SEQ ID NO: 22 (antibody, listed as Mus sp., V domains shown) VH: QVQLQQSGAELVRPGSSVKISCKASGYEFSYYWMNWVKQRPGQGLQWIGQIYPGDGDTNYNGKFKGKATLTADKSSSTAYMHLTSLTSEDSAVYFCARSGGNPFAFWGQGTLVTVSA VL: DIQMTQTSSSLSASLGDRVTFSCRASQDISNYLNWYQQKPDGTVKLLIYYTSRLHSGVTSRFRGSGSGTDYSLTISNLEQEDVATYFCQQGHTLPWSFGGGTKLEIK		mechanism (inverse agonist or neutral antagonist) ([1]; 5 μM forskolin, no agonist (Example 11)): inverse agonists; blocking of WIN55,212 induced ERK phosphorylation [2]: blocked; binding to parental TRex CHO [3]: not parental TRex CHO; cross-activity / selectivity human CB2 [4]: do not have cross-activity; cross-activity / cross-reactivity Mouse CB1 [5]: do not have cross-activity
PA2LR3-P4C6: CB1 receptor binding IgG clone (antibody, V domains shown, PA2LR3-P4C6 Heavy Chain Variable region; PA2LR3-P4C6 Light Chain Variable region) VH: EVQLQQSGAELVRPGSSVKISCKASGYAFSYYWMNWVKQRPGQGLEWIGQIYPGDGDTNYNGKFKGKATLTADKSSSTAYMQLSSLTSEDSAVYFCARSHGNYFPYWGQGTLVTVSA VL: DIVITQSPAIVSASLGERVTMTCTASSSVSSSYLHWYQQKPGSSPKLWIYSTSNLASGVPARFSGSGSGTSYSLTISSMEAEDAATYYCQQWSSYPLTFGAGTKLEIK	do not induce	
PA2LR3-P6B12: HC variable SEQ ID NO: 50, LC variable SEQ ID NO: 54; potential allosteric modulator (antibody, V domains shown, PA2LR3-P6B12 Heavy chain variable region; PA2LR3-P6B12 Light chain variable region) VH: EVQLQQSGAELVRPGSSVKISCKASGYAFSYYWMNWVKQRPGQGLEWIGQIYPGDGDTNYNGKFKGKATLTADKSSSTAYMQLSSLTSEDSAVYFCARSHGNYFAYWGQGTLVTVSA VL: QIVLTQSPAIMSASLGERVTMTCTASSSVSSSYLHWYQQKPGSSPKLWIYSTSNLASGVPARFSGSGSGTSYSLTISSMEAEDAATYYCHQYHRSPLAFGAGTKLELK	do not induce	
PA2LR3-P4G10: CB1 receptor binding IgG clone (antibody, V domains shown, PA2LR3-P4G10 Heavy Chain Variable region; PA2LR3-P4G10 Light Chain Variable region) VH: EVQLQQFGAELVRPGSSVKISCKASGYAFSYYWMNWVKQRPGQGLEWIGQIYPGDGDTNYNGKFKGKATLTADKSSSTAYMQLSSLTSEDSAVYFCARSHGNYFAYWGQGTLVTVSA VL: DIVLTQSPAIMSASLGERVTMTCTASSSVSSSYLHWYQQKPGSSPKLWIYSTSNLASGVPARFSGSGSGTSYSLTISSMEAEDAATYYCQQWSSNPLTFGAGTKLELK	do not induce	
PA2LR3-P3A8: CB1 antibody (antibody, V domains shown, PA2LR3-P3A8 Heavy Chain Variable Region; PA2LR3-P3A8 Light Chain Variable Region, CB1 antibody) VH: EVQLQQSGAELVRPGSSVKISCKASGYAFSYYWMNWVKQRPGQGLEWIGQIYPGDGDTNYNGKVKGKATLTADKSSSTAYMQLSSLTSEDSAVYFCARSHGNYFAYWGQGTLVTVSA VL: DIVMTQSPAIMSASLGERVTMTCTASSSVSSSYLHWYQQKPGSSPKLWIYSTSNLASGVPARFSGSGSGTSYSLTISSMEAEDAATYYCQQWSSNPLTFGAGTKLELK	do not induce	
PA2LR3-P3F8: CB1 antibody (antibody, V domains shown, PA2LR3-P3F8 Heavy Chain Variable Region; PA2LR3-P3F8 Light Chain Variable Region, CB1 antibody) VH: EVQLQQSGAELVRPGSSVKISCKASGYAFSNYWMNWVKQRPGQGLEWIGQIYPGDGDTNYNGNFKGKATLTADKSSSTAYMQLSSLTSEDSAVYFCARSHGNYFPYWGQGTLVTVSA VL: DIVLTQSPAIMSASLGERVTMTCTASSSVSSSYLHWYQQKPGSSPKLWIYSTSNLASGVPARFSGSGSGTSYSLTISSMEAEDAATYYCQQWSSYPLTFGAGTKLELK	do not induce	
PA2LR3-P5E7: CB1 antibody (antibody, V domains shown, PA2LR3-P5E7 Heavy Chain Variable region; PA2LR3-P5E7 Light Chain Variable region, CB1 antibody) VH: EVQLQQSGAELVRPGSSVKISCKASGYAFSNYWMNWVKQRPGQGLEWIGQIYPGDGDTNFNGKFKGRAILTADISSNTAYMQLSSLTSEDSAVYFCARSHGNYFPYWGQGTLVTVSA VL: DIVLTQSPTTMAASPGEKITITCSASSSISSNYLHWYQQKPGFSPKLLIYRTSTLASGVPARFSGSGSGTSYSLTISSMEAEDAATYYCHQYHRSPHTFGSGTKLEIK	do not induce	
PA2LR3-P4B1: HC variable SEQ ID NO: 42, LC variable SEQ ID NO: 46; potential agonist IgG (antibody, V domains shown, PA2LR3-P4B1 Heavy chain variable region; PA2LR3-P4B1 Light chain variable region) VH: EVQLQQSGAELVRPGSSVKISCKASGFAFSNYWMNWVKQRPGQGLEWIGQIYPGDGDTNFNGKFKGRAILTADISSNTAYMQLSSLTSEDSAVYFCARSHGNYFPYWGQGTLVTVSA VL: QIVLTQSPAIMSASLGERVTMTCTASSSVSSSYLHWYQQKPGSSPKLWIYSTSNLASGVPARFSGSGSGTSYSLTISSMEAEDAATYYCHQYHRSPLTFGAGTKLELK	do not induce	
PA2LR3-P6G7: HC variable SEQ ID NO: 58, LC variable SEQ ID NO: 62; potential agonist IgG (antibody, V domains shown, PA2LR3-P6G7 Heavy chain variable region; PA2LR3-P6G7 Light chain variable region) VH: EVQLQQSGAELVRPGSSVKISCKASGFAFSNYWMNWVKQRPGQGLEWIGQIYPGDGDTNFNGKFKGRAILTADISSNTAYMQLSSLTSEDSAVYFCARSHGNYFPYWGQGTLVTVSA VL: DIVLTQSPAIMSASLGERVTMTCTASSSVSSSYLHWYQQKPGSSPKLWIYSTSNLASGVPARFSGSGSGTSYSLTISSMEAEDAATYYCHQHHRSPPTFGAGTKLELK	do not induce	
PA2LR3-P4B5: CB1 antibody; HC variable SEQ ID NO: 26, LC variable SEQ ID NO: 30 (antibody, V domains shown, PA2LR3- P4B5 Heavy chain variable region; PA2LR3- P4B5 Light chain variable region) VH: EVQLQQSGAELVRPGSSVKISCKASGYAFSYYWMNWVKQRPGQGLEWIGQIYPGDGDTNYSGRFKGKATLTADKSSSTAYIQLSSLTSEDSAVYFCARSHGNYFPYWGQGTLVTVSA VL: DIVLNQSPAIMSASLGERVTMTCTASSSVSSSYLHWYQQKPGSSPKLWIYSTSNLASGVPARFSGSGSGTSYSLTISSMEAEDAATYYCHQYHRSPLTFGAGTKLEIK	do not induce	
